# Laboratory results published in publication PMC6048507.
# Like-named read-outs stand apart in the source and are kept apart here.
# How the values were obtained:
# [1] = biological target: mavirus cysteine protease (MVP) (mavirus)
# [2] = biological target: mavirus major capsid protein truncated at the C terminus (MCPΔC, res. 1–516), purified capsomer (mavirus)
# [3] = biological target: mavirus major capsid protein truncated at the C terminus (MCPΔC, res. 1–516), purified capsomer (mavirus); test: crystal structure
# [4] = biological target: mavirus major capsid protein, full-length (flMCP), purified capsomer (mavirus); test: crystal structure
# [5] = biological target: mavirus major capsid protein, full-length (flMCP), purified capsomer (mavirus)
# [6] = biological target: mavirus penton protein (minor capsid protein, MV17), purified (mavirus); test: crystal structure
# [7] = biological target: mavirus penton protein (minor capsid protein, MV17), purified (mavirus)
substance,measurement,setting,value
mavirus cysteine protease (MVP) (enzyme),stoichiometry N,[1],2
"mavirus major capsid protein truncated at the C terminus (MCPΔC, res. 1–516), purified capsomer (domain or fragment)",stoichiometry N,[2],3
same,stoichiometry N,[3],3
"mavirus major capsid protein, full-length (flMCP), purified capsomer (natural protein)",stoichiometry N,[4],3
same,stoichiometry N,[5],3
"mavirus penton protein (minor capsid protein, MV17), purified (natural protein)",stoichiometry N,[6],5
same,stoichiometry N,[7],5
